Test results: US9657062B2, “Ghrelin analogues” (Zealand Pharma A/S, priority 2012, dated 2017)
*1 amine or outer side, *2 acyl side, *3 side chain or, on linkers, in order; H or OH if unused. [ ]: non-standard residue; d: D form. The star is where a group is joined. Achc(cis-1,4) = O=C([C@H]1CC[C@@H](N[*:1])CC1)[*:2]; Achc(trans-4) = O=C([C@H]1CC[C@H](N[*:1])CC1)[*:2]; Palmitoyl = CCCCCCCCCCCCCCCC(=O)*; 3Amb = NCc1cccc(C(=O)O)c1; Octanoyl = CCCCCCCC(=O)*; Inp = O=C(O)C1CCNCC1; Octyl = CCCCCCCC*

B1: H-[tACC]-S(O-octanoyl)-FLSPEHQRVQQRKESKKPPAKLQPR-OH (peptide)
peptide: H-[Achc(trans-4)]S(Octanoyl)FLSPEHQRVQQRKESKKPPAKLQPR-OH
SMILES: CCCCCCCC(=O)OC[C@H](NC(=O)[C@H]1CC[C@H](N)CC1)C(=O)N[C@@H](Cc1ccccc1)C(=O)N[C@@H](CC(C)C)C(=O)N[C@@H](CO)C(=O)N1CCC[C@H]1C(=O)N[C@@H](CCC(=O)O)C(=O)N[C@@H](Cc1c[nH]cn1)C(=O)N[C@@H](CCC(N)=O)C(=O)N[C@@H](CCCNC(=N)N)C(=O)N[C@H](C(=O)N[C@@H](CCC(N)=O)C(=O)N[C@@H](CCC(N)=O)C(=O)N[C@@H](CCCNC(=N)N)C(=O)N[C@@H](CCCCN)C(=O)N[C@@H](CCC(=O)O)C(=O)N[C@@H](CO)C(=O)N[C@@H](CCCCN)C(=O)N[C@@H](CCCCN)C(=O)N1CCC[C@H]1C(=O)N1CCC[C@H]1C(=O)N[C@@H](C)C(=O)N[C@@H](CCCCN)C(=O)N[C@@H](CC(C)C)C(=O)N[C@@H](CCC(N)=O)C(=O)N1CCC[C@H]1C(=O)N[C@@H](CCCNC(=N)N)C(=O)O)C(C)C
B2: H-Mamb-S(O-octanoyl)-FLSPEHQRVQQRKESKKPPAKLQPR-OH (peptide)
peptide: H-[3Amb]S(Octanoyl)FLSPEHQRVQQRKESKKPPAKLQPR-OH
SMILES: CCCCCCCC(=O)OC[C@H](NC(=O)c1cccc(CN)c1)C(=O)N[C@@H](Cc1ccccc1)C(=O)N[C@@H](CC(C)C)C(=O)N[C@@H](CO)C(=O)N1CCC[C@H]1C(=O)N[C@@H](CCC(=O)O)C(=O)N[C@@H](Cc1c[nH]cn1)C(=O)N[C@@H](CCC(N)=O)C(=O)N[C@@H](CCCNC(=N)N)C(=O)N[C@H](C(=O)N[C@@H](CCC(N)=O)C(=O)N[C@@H](CCC(N)=O)C(=O)N[C@@H](CCCNC(=N)N)C(=O)N[C@@H](CCCCN)C(=O)N[C@@H](CCC(=O)O)C(=O)N[C@@H](CO)C(=O)N[C@@H](CCCCN)C(=O)N[C@@H](CCCCN)C(=O)N1CCC[C@H]1C(=O)N1CCC[C@H]1C(=O)N[C@@H](C)C(=O)N[C@@H](CCCCN)C(=O)N[C@@H](CC(C)C)C(=O)N[C@@H](CCC(N)=O)C(=O)N1CCC[C@H]1C(=O)N[C@@H](CCCNC(=N)N)C(=O)O)C(C)C
B3: H-[cACC]-S(O-octanoyl)-FLSPEHQRVQQRKESKKPPAKLQPR-OH (peptide)
peptide: H-[Achc(cis-1,4)]S(Octanoyl)FLSPEHQRVQQRKESKKPPAKLQPR-OH
SMILES: CCCCCCCC(=O)OC[C@H](NC(=O)[C@H]1CC[C@@H](N)CC1)C(=O)N[C@@H](Cc1ccccc1)C(=O)N[C@@H](CC(C)C)C(=O)N[C@@H](CO)C(=O)N1CCC[C@H]1C(=O)N[C@@H](CCC(=O)O)C(=O)N[C@@H](Cc1c[nH]cn1)C(=O)N[C@@H](CCC(N)=O)C(=O)N[C@@H](CCCNC(=N)N)C(=O)N[C@H](C(=O)N[C@@H](CCC(N)=O)C(=O)N[C@@H](CCC(N)=O)C(=O)N[C@@H](CCCNC(=N)N)C(=O)N[C@@H](CCCCN)C(=O)N[C@@H](CCC(=O)O)C(=O)N[C@@H](CO)C(=O)N[C@@H](CCCCN)C(=O)N[C@@H](CCCCN)C(=O)N1CCC[C@H]1C(=O)N1CCC[C@H]1C(=O)N[C@@H](C)C(=O)N[C@@H](CCCCN)C(=O)N[C@@H](CC(C)C)C(=O)N[C@@H](CCC(N)=O)C(=O)N1CCC[C@H]1C(=O)N[C@@H](CCCNC(=N)N)C(=O)O)C(C)C
B4: H-Inp-S-S(O-octyl)-FLSPEHQRVQQRKES-K(hexadecanoyl)-KPPAKLQPR-OH (peptide)
peptide: H-[Inp]SS(Octyl)FLSPEHQRVQQRKESK(Palmitoyl)KPPAKLQPR-OH
SMILES: CCCCCCCCCCCCCCCC(=O)NCCCC[C@H](NC(=O)[C@H](CO)NC(=O)[C@H](CCC(=O)O)NC(=O)[C@H](CCCCN)NC(=O)[C@H](CCCNC(=N)N)NC(=O)[C@H](CCC(N)=O)NC(=O)[C@H](CCC(N)=O)NC(=O)[C@@H](NC(=O)[C@H](CCCNC(=N)N)NC(=O)[C@H](CCC(N)=O)NC(=O)[C@H](Cc1c[nH]cn1)NC(=O)[C@H](CCC(=O)O)NC(=O)[C@@H]1CCCN1C(=O)[C@H](CO)NC(=O)[C@H](CC(C)C)NC(=O)[C@H](Cc1ccccc1)NC(=O)[C@H](COCCCCCCCC)NC(=O)[C@H](CO)NC(=O)C1CCNCC1)C(C)C)C(=O)N[C@@H](CCCCN)C(=O)N1CCC[C@H]1C(=O)N1CCC[C@H]1C(=O)N[C@@H](C)C(=O)N[C@@H](CCCCN)C(=O)N[C@@H](CC(C)C)C(=O)N[C@@H](CCC(N)=O)C(=O)N1CCC[C@H]1C(=O)N[C@@H](CCCNC(=N)N)C(=O)O
B5: H-Inp-S-S(O-octyl)-FLSPEHQRVQQRKESKKPPAKL-K(hexadecanoyl)-PR-OH (peptide)
peptide: H-[Inp]SS(Octyl)FLSPEHQRVQQRKESKKPPAKLK(Palmitoyl)PR-OH
SMILES: CCCCCCCCCCCCCCCC(=O)NCCCC[C@H](NC(=O)[C@H](CC(C)C)NC(=O)[C@H](CCCCN)NC(=O)[C@H](C)NC(=O)[C@@H]1CCCN1C(=O)[C@@H]1CCCN1C(=O)[C@H](CCCCN)NC(=O)[C@H](CCCCN)NC(=O)[C@H](CO)NC(=O)[C@H](CCC(=O)O)NC(=O)[C@H](CCCCN)NC(=O)[C@H](CCCNC(=N)N)NC(=O)[C@H](CCC(N)=O)NC(=O)[C@H](CCC(N)=O)NC(=O)[C@@H](NC(=O)[C@H](CCCNC(=N)N)NC(=O)[C@H](CCC(N)=O)NC(=O)[C@H](Cc1c[nH]cn1)NC(=O)[C@H](CCC(=O)O)NC(=O)[C@@H]1CCCN1C(=O)[C@H](CO)NC(=O)[C@H](CC(C)C)NC(=O)[C@H](Cc1ccccc1)NC(=O)[C@H](COCCCCCCCC)NC(=O)[C@H](CO)NC(=O)C1CCNCC1)C(C)C)C(=O)N1CCC[C@H]1C(=O)N[C@@H](CCCNC(=N)N)C(=O)O
B6: H-Inp-S-S(O-octyl)-FLSPEHQRV-K(hexadecanoyl)-QRKESKKPPAKLQPR-OH (peptide)
peptide: H-[Inp]SS(Octyl)FLSPEHQRVK(Palmitoyl)QRKESKKPPAKLQPR-OH
SMILES: CCCCCCCCCCCCCCCC(=O)NCCCC[C@H](NC(=O)[C@@H](NC(=O)[C@H](CCCNC(=N)N)NC(=O)[C@H](CCC(N)=O)NC(=O)[C@H](Cc1c[nH]cn1)NC(=O)[C@H](CCC(=O)O)NC(=O)[C@@H]1CCCN1C(=O)[C@H](CO)NC(=O)[C@H](CC(C)C)NC(=O)[C@H](Cc1ccccc1)NC(=O)[C@H](COCCCCCCCC)NC(=O)[C@H](CO)NC(=O)C1CCNCC1)C(C)C)C(=O)N[C@@H](CCC(N)=O)C(=O)N[C@@H](CCCNC(=N)N)C(=O)N[C@@H](CCCCN)C(=O)N[C@@H](CCC(=O)O)C(=O)N[C@@H](CO)C(=O)N[C@@H](CCCCN)C(=O)N[C@@H](CCCCN)C(=O)N1CCC[C@H]1C(=O)N1CCC[C@H]1C(=O)N[C@@H](C)C(=O)N[C@@H](CCCCN)C(=O)N[C@@H](CC(C)C)C(=O)N[C@@H](CCC(N)=O)C(=O)N1CCC[C@H]1C(=O)N[C@@H](CCCNC(=N)N)C(=O)O

Each binder was assayed against human growth hormone secretagogue receptor type 1a (human, UniProt Q92847 1-366) (assay: cell-based or functional assay).
Sequence of human growth hormone secretagogue receptor type 1a (Q92847 whole entry): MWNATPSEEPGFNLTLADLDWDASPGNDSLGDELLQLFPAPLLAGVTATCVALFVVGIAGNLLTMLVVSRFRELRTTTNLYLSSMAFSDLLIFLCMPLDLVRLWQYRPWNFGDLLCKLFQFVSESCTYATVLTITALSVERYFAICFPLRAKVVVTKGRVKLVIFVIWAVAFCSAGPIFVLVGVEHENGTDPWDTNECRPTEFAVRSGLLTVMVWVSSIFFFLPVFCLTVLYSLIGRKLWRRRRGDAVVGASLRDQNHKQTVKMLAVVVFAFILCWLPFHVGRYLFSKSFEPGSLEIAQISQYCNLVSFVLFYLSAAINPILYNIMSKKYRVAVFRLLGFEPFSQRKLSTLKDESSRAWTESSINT
For B1, the “EC50 (nM); Ca2+ induction in HEK293 cells stably expressing the human ghrelin receptor” value (from here on “EC50 (nM); Ca2+ induction”) was 1.89 nM. For B2, the “EC50 (nM); Ca2+ induction” value was 1.56 nM. With B3 the “EC50 (nM); Ca2+ induction” value was 0.379 nM. With B4 the “EC50 (nM); Ca2+ induction” value was 2.52 nM. B5 was tested, and the “EC50 (nM); Ca2+ induction” value was 1.18 nM. B6 was tested, and the “EC50 (nM); Ca2+ induction” value was 2.55 nM.
